Test results reported in patent publication US20160194357A1, “Novel NPR-B Agonists” (published 2016).
Bridges are numbered along the chain shown (N, C = ends). Where no end group is shown, it is not given here.

T1: natriuretic peptide receptor -B (human)
T1 chain: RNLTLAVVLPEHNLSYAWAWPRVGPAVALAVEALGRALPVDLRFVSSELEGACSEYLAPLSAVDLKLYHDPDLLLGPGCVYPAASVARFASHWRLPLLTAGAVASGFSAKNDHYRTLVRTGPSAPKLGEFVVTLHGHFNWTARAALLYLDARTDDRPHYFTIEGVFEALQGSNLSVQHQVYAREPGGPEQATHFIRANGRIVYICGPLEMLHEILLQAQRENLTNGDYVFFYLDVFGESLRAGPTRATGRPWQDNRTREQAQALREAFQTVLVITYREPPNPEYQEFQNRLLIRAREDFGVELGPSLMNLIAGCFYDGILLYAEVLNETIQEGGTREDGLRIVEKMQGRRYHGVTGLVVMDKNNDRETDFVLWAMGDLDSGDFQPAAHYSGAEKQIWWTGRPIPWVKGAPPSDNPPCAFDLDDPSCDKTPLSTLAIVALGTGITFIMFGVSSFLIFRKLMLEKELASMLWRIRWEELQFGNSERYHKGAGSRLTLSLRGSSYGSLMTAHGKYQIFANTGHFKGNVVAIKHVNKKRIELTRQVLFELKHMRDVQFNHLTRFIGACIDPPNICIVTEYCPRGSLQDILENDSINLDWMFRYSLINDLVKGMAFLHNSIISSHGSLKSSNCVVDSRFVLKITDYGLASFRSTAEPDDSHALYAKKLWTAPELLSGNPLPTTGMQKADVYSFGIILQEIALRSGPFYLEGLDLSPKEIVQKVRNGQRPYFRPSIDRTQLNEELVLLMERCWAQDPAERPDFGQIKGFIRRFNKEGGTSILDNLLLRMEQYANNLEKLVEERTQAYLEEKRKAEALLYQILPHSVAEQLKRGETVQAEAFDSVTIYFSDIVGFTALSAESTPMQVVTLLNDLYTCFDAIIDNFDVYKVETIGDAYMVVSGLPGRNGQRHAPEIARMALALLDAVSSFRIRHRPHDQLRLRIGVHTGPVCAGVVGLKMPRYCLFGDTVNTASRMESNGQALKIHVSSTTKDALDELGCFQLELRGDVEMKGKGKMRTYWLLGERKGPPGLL

T2: natriuretic peptide receptor -A (Homo sapiens)
T2 chain: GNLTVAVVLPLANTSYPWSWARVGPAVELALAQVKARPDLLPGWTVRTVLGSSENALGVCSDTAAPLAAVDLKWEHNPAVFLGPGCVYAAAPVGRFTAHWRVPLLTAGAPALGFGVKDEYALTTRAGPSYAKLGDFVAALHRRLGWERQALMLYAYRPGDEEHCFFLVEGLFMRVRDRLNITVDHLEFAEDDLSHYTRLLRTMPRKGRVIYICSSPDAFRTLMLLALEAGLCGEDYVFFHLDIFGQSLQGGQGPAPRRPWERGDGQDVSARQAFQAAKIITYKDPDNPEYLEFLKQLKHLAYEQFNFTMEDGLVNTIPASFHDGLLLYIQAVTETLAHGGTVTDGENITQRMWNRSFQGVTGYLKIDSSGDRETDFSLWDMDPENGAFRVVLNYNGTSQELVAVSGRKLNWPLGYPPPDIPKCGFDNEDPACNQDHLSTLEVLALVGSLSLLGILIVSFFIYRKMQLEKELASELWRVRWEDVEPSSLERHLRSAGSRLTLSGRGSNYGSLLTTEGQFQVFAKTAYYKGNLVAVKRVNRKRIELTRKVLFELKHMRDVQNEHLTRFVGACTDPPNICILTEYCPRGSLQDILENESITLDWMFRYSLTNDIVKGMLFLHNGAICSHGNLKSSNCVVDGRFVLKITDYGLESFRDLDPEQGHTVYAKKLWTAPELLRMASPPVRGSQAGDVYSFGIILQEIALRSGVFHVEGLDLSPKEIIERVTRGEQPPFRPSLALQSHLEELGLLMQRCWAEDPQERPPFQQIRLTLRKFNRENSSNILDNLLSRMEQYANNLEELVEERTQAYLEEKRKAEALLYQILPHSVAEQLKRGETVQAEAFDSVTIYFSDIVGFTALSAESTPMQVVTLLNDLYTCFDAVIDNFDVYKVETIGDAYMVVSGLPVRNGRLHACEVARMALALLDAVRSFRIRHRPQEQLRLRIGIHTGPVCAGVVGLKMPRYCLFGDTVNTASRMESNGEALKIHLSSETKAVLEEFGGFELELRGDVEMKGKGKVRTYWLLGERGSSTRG


Tests used:
[1] = biological target: T1, natriuretic peptide receptor -B; assay: cell-based or functional assay
[2] = biological target: T2, natriuretic peptide receptor -A; assay: cell-based or functional assay

cyclic GMP production in GTM-3 cells, EC50 [1]	cyclic GMP production in GTM-3 cells, Emax (maximum activation) [1]	cyclic GMP production in NPR-A transfected 293-T cells, EC50 [2]	Binder
38.8 nM	100%	1600 nM	GLSKGCFGLKLDRIGSMSGLGC (ligand, disulfide 6-22) [C-type natriuretic peptide]
1630 nM	15%		SLRRSSCFGGRMDRIGAQSGLGCNSFRY (ligand, disulfide 7-23) [atrial natriuretic peptide]
> 45000 nM	0%	1540 nM	MCHFGGRMDRISCYR [mini-ANP]
